The values below come from paper PMC9747239, “State-selective modulation of heterotrimeric Gαs signaling with macrocyclic peptides” (Cell, 2022).

The target in the assay is T1, His-Gβ1/Gγ2(C68S) (human, UniProt P62873 1-340; P59768 1-71, C68S).
T1 construct: human Gβ1 (GNB1); human Gγ2 (GNG2) with C68S; also called Gβγ; Gβγ(C68S); source: Sf9, baculovirus (pFastBac Dual), co-expressed, purified (TALON, gel filtration); not shown: His6, N-terminal, kept
Put plainly: AlphaScreen or HTRF; TR-FRET Gα/Gβγ interaction assay: 4 nM biotinylated avi-Gα with streptavidin XL665, 2 nM His-Gβ1/γ2(C68S) with anti-6His-Tb cryptate, cyclic peptide 0-10,000 nM; 1X PBS 7.4, 2 mM DTT, 0.1% BSA, 2 mM MgCl2, 0.05% Tween, 0.5 mM GDP, 2 h at room temperature. Particulars: both partners purified. For orientation: Bead proximity is the source of the signal in Alpha formats.

T1 sequence (P62873 whole entry, chain 1 of 2): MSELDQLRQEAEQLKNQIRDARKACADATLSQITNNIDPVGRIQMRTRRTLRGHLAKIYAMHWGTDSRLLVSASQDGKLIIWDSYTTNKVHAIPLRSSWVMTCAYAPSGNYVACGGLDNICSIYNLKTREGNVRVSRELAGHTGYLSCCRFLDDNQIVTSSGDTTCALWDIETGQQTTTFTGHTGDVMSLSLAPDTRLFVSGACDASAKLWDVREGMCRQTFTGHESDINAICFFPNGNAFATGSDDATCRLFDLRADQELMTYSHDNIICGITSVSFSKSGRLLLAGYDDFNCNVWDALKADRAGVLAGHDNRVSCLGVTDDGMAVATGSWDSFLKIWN
T1 sequence (P59768 whole entry C68S, chain 2 of 2): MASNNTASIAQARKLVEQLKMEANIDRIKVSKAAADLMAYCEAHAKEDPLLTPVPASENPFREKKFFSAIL

B1: Biotinylated Avi-Gαs (WT), residues 7-380 of the short isoform of human Gαs (natural protein)
chain: SKTEDQRNEEKAQREANKKIEKQLQKDKQVYRATHRLLLLGAGESGKSTIVKQMRILHVNGFNGDSEKATKVQDIKNNLKEAIETIVAAMSNLVPPVELANPENQFRVDYILSVMNVPDFDFPPEFYEHAKALWEDEGVRACYERSNEYQLIDCAQYFLDKIDVIKQADYVPSDQDLLRCRVLTSGIFETKFQVDKVNFHMFDVGGQRDERRKWIQCFNDVTAIIFVVASSSYNMVIREDNQTNRLQEALNLFKSIWNNRWLRTISVILFLNKQDLLAEKVLAGKSKIEDYFPEFARYTTPEDATPEPGEDPRVTRAKYFIRDEFLRISTASGDGRHYCYPHFTCAVDTENIRRVFNDCRDIIQRMHLRQYELL
modifications: biotin on the Avi tag (BirA)
notes: human Gαs (GNAS), short isoform, residues 7-380; Loaded with GNP (GppNHp) or GDP; the nucleotide state is told by the assay; also called Gαs/GNP; Gαs/GDP; source: E. coli BL21(DE3), purified (TALON, Drice cleavage, BirA biotinylation, Source-15Q, gel filtration); not shown: Avi tag, N-terminal, kept; His6, N-terminal, cleaved
As for B1, the binding result was “binds”.
